This passage reports EC50 results from publication PMC11128199 (2024).

This assay deals with S protein of WT SARS-CoV-2 (SARS-CoV-2, UniProt P0DTC2). The assay is described as follows: ELISA.

B1: 55A8 neutralizing antibody (IgG) (antibody, V domains shown)
VH: QVQLVQSGAEVKKPGSSVKVSCKASGGTFSSYSFIWVRQAPGQGLEWMGRIIPILGIANYAQKFQGRVTITADKSTTTAYMELSSLRSEDTAVYYCARGTEYGDYDVSHDWGQGTLVTVSS
VL: not shown
B1 registered an EC50 of 0.0439 µg/mL.
